Target: the molecule itself
Experiment: SEC-MALS under native conditions in PBS; self-association (non-covalent dimer)

B1: mouse IL-2-10/CD25 (mIL2-linker-CD25-linker-IL10) (other)
chain: APTSSPTSSPTSSSTAEAQQQQQQQQHLEQLLMDLQELLSRMENYRNLKLPRMLTFKFYLPKQATELKDLQCLEDELGPLRHVLDLTQSKSFQLEDAENFISNIRVTVVKLKGSDNTFECQFDDESATVVDFLRRWIAFCQSIISTSPQGGGSGGGSGGGSELCLYDPPEVPNATFKALSYKNGTILNCECKRGFRRLKELVYMRCLGNSWSSNCQCTSNSHDKSRKQVTAQLEHQKEQQTTTDMQKPTQSMHQENLTGHCREPPPWKHEDSKRIYHFVEGQSVHYECIPGYKALQRGPAISICKMKCGKTGWTQPQLTCVDEREHHRFLASEESQGSRNSSPESETSCPITTTDFPQPTETTAMTETFVLTMEYKGGGSGGGSGGGSSRGQYSREDNNCTHFPVGQSHMLLELRTAFSQVKTFFQTKDQLDNILLTDSLMQDFKGYLGCQALSEMIQFYLVEVMPQAEKHGPEIKEHLNSLGEKLKTLRMRLRRCHRFLPCENKSKAVEQVKSDFNKLQDQGVYKAMNEFDIFINCIEAYMMIKMKSGGHHHHHH
notes: Under native conditions it is predominately a non-covalent dimer; also called mIL-2-10/CD25; mIL2-10/CD25
- binding result: binds
